Earlier results on one substance are cited in article PMC3343272.

By Kd is commonly meant the concentration at which binding is half-saturated.

The target of the series is Nonmuscle myosin IIA M32 1907-1938 (Homo sapiens) (UniProt P35579). Description: kinetic assay.
Chain of Nonmuscle myosin IIA M32 1907-1938 (Homo sapiens) (P35579 1907-1938): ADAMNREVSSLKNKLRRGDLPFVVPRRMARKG

Chain of S100A4 (P26447 2-101): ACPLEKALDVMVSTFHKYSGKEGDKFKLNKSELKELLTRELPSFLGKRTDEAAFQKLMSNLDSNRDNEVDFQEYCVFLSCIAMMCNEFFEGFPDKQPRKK

On to S100A4 (from UniProt P26447), for which the Kd is 3000 nM.
